According to PMC13598245, “A complex of MAST1 and 14-3-3η regulates Tau phosphorylation in the developing cortex” (Proceedings of the National Academy of Sciences of the …, 2026):

B1: GST-tagged 14-3-3η (coexpressed with MAST1^DK) (natural protein, UniProt Q04917 1-246, looked up)
chain: MGDREQLLQRARLAEQAERYDDMASAMKAVTELNEPLSNEDRNLLSVAYKNVVGARRSSWRVISSIEQKTMADGNEKKLEKVKAYREKIEKELETVCNDVLSLLDKFLIKNCNDFQYESKVFYLKMKGDYYRYLAEVASGEKKNSVVEASEAAYKEAFEISKEQMQPTHPIRLGLALNFSVFYYEIQNAPEQACLLAKQAFDDAIAELDTLNEDSYKDSTLIMQLLRDNLTLWTSDQQDEEAGEGN
notes: 14-3-3 protein eta
B2: 14-3-3η (purified, recombinant) (natural protein, UniProt Q04917 1-246, looked up)
chain: B1 chain
notes: 14-3-3 protein eta; also called purified 14-3-3η; source: purified recombinant

Molecular target: the molecule itself
Experiment: cross-linking + other: mass photometry; complex stabilised by glutaraldehyde cross-linking, then mass photometry (25 to 50 nM, 50 mM HEPES pH 7.4, 150 mM NaCl, 1 mM TCEP)

Protein | stoichiometry N
B1 | 2
B2 | 2
